Experimental data reported in PMC5356532.

Legend:
[1] = molecular target: Pyruvate kinase M2 (PKM2), endogenous in NIH-3T3 cells (mouse (endogenous in NIH-3T3)) (UniProt P52480); test: cross-linking
[2] = molecular target: Pyruvate kinase M2 (PKM2), endogenous in U251-iUS28 cells (human (endogenous in U251)) (UniProt P14618); test: cross-linking

Pyruvate kinase M2 (PKM2), endogenous in NIH-3T3 cells, P52480 1-531 (enzyme; other documents disagree on this pair), sequence (P52480 whole entry): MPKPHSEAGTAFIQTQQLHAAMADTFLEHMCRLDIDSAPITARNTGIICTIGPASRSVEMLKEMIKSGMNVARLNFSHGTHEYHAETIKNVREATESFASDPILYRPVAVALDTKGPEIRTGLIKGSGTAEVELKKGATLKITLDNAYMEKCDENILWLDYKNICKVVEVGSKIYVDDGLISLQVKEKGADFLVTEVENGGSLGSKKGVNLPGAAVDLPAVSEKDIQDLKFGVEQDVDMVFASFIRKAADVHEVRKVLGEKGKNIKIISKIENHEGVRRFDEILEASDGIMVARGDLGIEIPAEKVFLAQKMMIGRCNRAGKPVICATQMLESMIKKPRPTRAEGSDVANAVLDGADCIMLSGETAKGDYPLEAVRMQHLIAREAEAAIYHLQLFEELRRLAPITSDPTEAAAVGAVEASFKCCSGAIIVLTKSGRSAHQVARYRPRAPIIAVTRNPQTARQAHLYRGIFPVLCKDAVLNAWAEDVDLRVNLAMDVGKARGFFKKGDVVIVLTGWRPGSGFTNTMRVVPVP
Pyruvate kinase M2 (PKM2), endogenous in U251-iUS28 cells, P14618 1-531 (enzyme; other documents disagree on this pair), sequence (P14618 whole entry): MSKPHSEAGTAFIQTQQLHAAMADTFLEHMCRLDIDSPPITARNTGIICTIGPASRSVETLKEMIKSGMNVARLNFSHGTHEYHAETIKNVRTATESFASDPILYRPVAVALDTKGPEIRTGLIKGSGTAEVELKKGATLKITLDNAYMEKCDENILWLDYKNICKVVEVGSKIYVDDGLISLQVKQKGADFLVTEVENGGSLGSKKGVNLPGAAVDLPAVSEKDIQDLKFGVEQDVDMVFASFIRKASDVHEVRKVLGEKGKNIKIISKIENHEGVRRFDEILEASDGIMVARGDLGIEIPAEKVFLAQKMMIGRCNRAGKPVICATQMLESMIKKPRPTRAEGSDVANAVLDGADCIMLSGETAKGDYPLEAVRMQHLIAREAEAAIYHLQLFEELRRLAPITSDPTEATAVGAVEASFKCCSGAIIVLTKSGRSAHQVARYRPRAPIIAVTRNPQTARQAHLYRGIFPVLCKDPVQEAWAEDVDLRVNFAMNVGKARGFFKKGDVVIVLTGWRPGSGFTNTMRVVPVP

Substance	stoichiometry N [1]	stoichiometry N [2]
Pyruvate kinase M2 (PKM2), endogenous in NIH-3T3 cells, P52480 1-531 (enzyme; other documents disagree on this pair)	2	–
Pyruvate kinase M2 (PKM2), endogenous in U251-iUS28 cells, P14618 1-531 (enzyme; other documents disagree on this pair)	–	2
